B1: FAM116A (parent)
chain: TVHEVDIFRCFCPVFLHSQMLWEL
B2: MYBL2 (parent)
chain: FPNRTDQQCQYRWLRVLNPDLVKG

Our source for the protein stability index values is the supplement of paper PMC10567573.
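Note: lentivirally expressed fusions sorted by FACS into six bins by GFP to DsRed ratio, PSI derived from sequencing read proportions per bin multiplied by bin number.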

Variants of B1 are the subject of one series. The series can be described thus: protein stability index of a GFP-peptide fusion (GPS, HEK-293T) (PSI 1-6); higher = more stable. As to conditions: c terminus: a fixed tail appended.
For TVHEVDIFRCFCPVFLHSQMCWEL [L21C], the protein stability index was 3.04.

As to TVHEVDIFRCFCPVFLHSQMRWEL [L21R], the protein stability index came out at 1.77.

For the variant TVHEVDIFRCFCPVFLHSQMIWEL [L21I], the protein stability index was determined as 3.87.

Regarding TVHEVDIFRCFCPVFLHSQMTWEL [L21T], the protein stability index was found to be 3.12.

Consider TVHEVDIFRCFCPVFLHSQMQWEL [L21Q], for which the protein stability index is 3.05.

As to TVHEVDIFRCFCPVFLHSPMLWEL [Q19P], the protein stability index was 4.4.

With TVHEVDIFRCFCPVFLHSIMLWEL [Q19I], the protein stability index came out at 1.82.

As for TVHEVDIFRCFCPVFLHSSMLWEL [Q19S], the protein stability index came out at 2.74.

On to TVHEVDIFRCFCPVFLHSTMLWEL [Q19T], for which the protein stability index came out at 1.66.

In the case of TVHEVDIFRCFCPVFLHSAMLWEL [Q19A], the protein stability index was 3.23.

Turning to TVHEVDIFRCFCPVFLHSWMLWEL [Q19W], the protein stability index is 2.73.

Consider TVHEVDIFRCFCPVFLHSCMLWEL [Q19C], for which the protein stability index amounted to 2.22.

Turning to TVHEVDIFRCFCPVFLHSQILWEL [M20I], the protein stability index was 3.16.

Take TVHEVDIFRCFCPVFLHSQLLWEL [M20L]: the protein stability index was 3.06.

For TVHEVDIFRCFCPVFLHSQFLWEL [M20F], the protein stability index is 2.05.

TVHEVDIFRCFCPVFLHSQNLWEL [M20N]: the protein stability index is 3.79.

For TVHEVDIFRCFCPVFLHSQPLWEL [M20P], the protein stability index came out at 1.4.

Turning to TVHEVDIFRCFCPVFLHSQQLWEL [M20Q], the protein stability index was determined as 2.97.

For the variant TVHEVDIFRCFCPVFLHSQVLWEL [M20V], the protein stability index came to 2.62.

As to TVHEVDIFRCFCPVFLHSQKLWEL [M20K], the protein stability index was 1.68.

As for TVHEVDIFRCFCPVFLHSQYLWEL [M20Y], the protein stability index was determined as 3.21.

Consider TVHEVDIFRCFCPVFLHLQMLWEL [S18L], for which the protein stability index was found to be 2.89.

As to TVHEVDIFRCFCPVFLHFQMLWEL [S18F], the protein stability index was 2.77.

TVHEVDIFRCFCPVFLHGQMLWEL [S18G]: the protein stability index was 2.83.

Turning to TVHEVDIFRCFCPVFLHQQMLWEL [S18Q], the protein stability index came to 2.17.

As for TVHEVDIFRCFCPVFLHWQMLWEL [S18W], the protein stability index amounted to 2.85.

On to TVHEVDIFRCFCPVFLHTQMLWEL [S18T], for which the protein stability index worked out at 3.1.

TVHEVDIFRCFCPVFLHYQMLWEL [S18Y]: the protein stability index came out at 4.23.

On to TVHEVDIFRCFCPVFLHNQMLWEL [S18N], for which the protein stability index is 2.99.

Consider TVHEVDIFRCFCPVFLHDQMLWEL [S18D], for which the protein stability index was found to be 2.15.

As to TVHEVDIFRCFCPVFLHEQMLWEL [S18E], the protein stability index was found to be 1.56.

As for TVHEVDIFRCFCPVFLHSQMLWEY [L24Y], the protein stability index was 3.09.

TVHEVDIFRCFCPVFLHSQMLWEG [L24G]: the protein stability index was 3.33.

In the case of TVHEVDIFRCFCPVFLHSQMLWEC [L24C], the protein stability index is 4.01.

For the variant TVHEVDIFRCFCPVFLHSQMLWES [L24S], the protein stability index was determined as 2.18.

As to TVHEVDIFRCFCPVFLHSQMLWEW [L24W], the protein stability index was determined as 1.83.

Take TVHEVDIFRCFCPVFLHSQMLWEQ [L24Q]: the protein stability index is 1.47.

With TVHEVDIFRCFCPVFLHSQMLWEP [L24P], the protein stability index came out at 1.69.

As for TVHEVDIFRCFCPVFLHSQMLWKL [E23K], the protein stability index is 3.53.

With TVHEVDIFRCFCPVFLHSQMLWRL [E23R], the protein stability index amounted to 1.77.

Take TVHEVDIFRCFCPVFLHSQMLWSL [E23S]: the protein stability index worked out at 2.37.

On to TVHEVDIFRCFCPVFLHSQMLWHL [E23H], for which the protein stability index came to 3.28.

Consider TVHEVDIFRCFCPVFLHSQMLWWL [E23W], for which the protein stability index came to 2.4.

On to TVHEVDIFRCFCPVFLHSQMLWNL [E23N], for which the protein stability index was found to be 3.34.

TVHEVDIFRCFCPVFLHSQMLWIL [E23I]: the protein stability index worked out at 3.36.

For TVHEVDIFRCFCPVFLHSQMLWYL [E23Y], the protein stability index turned out to be 2.38.

On to TVHEVDIFRCFCPVFLHSQMLWLL [E23L], for which the protein stability index came out at 3.65.

On to TVHEVDIFRCFCPVFGHSQMLWEL [L16G], for which the protein stability index amounted to 2.97.

For the variant TVHEVDIFRCFCPVFNHSQMLWEL [L16N], the protein stability index is 3.13.

Regarding TVHEVDIFRCFCPVFEHSQMLWEL [L16E], the protein stability index was found to be 1.69.

In the case of TVHEVDIFRCFCPVFPHSQMLWEL [L16P], the protein stability index amounted to 2.89.

Turning to TVHEVDIFRCFCPVFCHSQMLWEL [L16C], the protein stability index was 3.78.

As for TVHEVDIFRCFCPVFRHSQMLWEL [L16R], the protein stability index is 3.17.

Regarding TVHEVDIFRCFCPVFLHSQMLTEL [W22T], the protein stability index came to 2.11.

For TVHEVDIFRCFCPVFLHSQMLHEL [W22H], the protein stability index stood at 1.52.

As for TVHEVDIFRCFCPVFLHSQMLKEL [W22K], the protein stability index is 1.13.

For the variant TVHEVDIFRCFCPVFLHSQMLREL [W22R], the protein stability index came out at 3.65.

Consider TVHEVDIFRCFCPVFLHSQMLMEL [W22M], for which the protein stability index was found to be 3.69.

Take TVHEVDIFRCFCPVFLHSQMLFEL [W22F]: the protein stability index was determined as 2.22.

For TVHEVDIFRCFCPVFLHSQMLGEL [W22G], the protein stability index worked out at 3.08.

On to TVHEVDIFRCFCPRFLHSQMLWEL [V14R], for which the protein stability index is 2.5.

Regarding TVHEVDIFRCFCPYFLHSQMLWEL [V14Y], the protein stability index was determined as 1.89.

With TVHEVDIFRCFCPVFLMSQMLWEL [H17M], the protein stability index came out at 3.23.

On to TVHEVDIFRCFCPVFLSSQMLWEL [H17S], for which the protein stability index amounted to 3.21.

Take TVHEVDIFRCFCPVFLRSQMLWEL [H17R]: the protein stability index stood at 2.65.

For the variant TVHEVDIFRCFCPVFLPSQMLWEL [H17P], the protein stability index came to 2.86.

Take TVHEVDIFRCFCPVKLHSQMLWEL [F15K]: the protein stability index came to 2.7.

With TVHEVDIFRCFCPVDLHSQMLWEL [F15D], the protein stability index amounted to 1.44.

Turning to TVHEVDIFRCFCPVVLHSQMLWEL [F15V], the protein stability index was found to be 1.94.

As for TVHEVDIFRCFCPVRLHSQMLWEL [F15R], the protein stability index was determined as 4.41.

With TVHEVDIFRCFCPVILHSQMLWEL [F15I], the protein stability index stood at 3.86.

For the variant TVHEVDIFRCFCPVHLHSQMLWEL [F15H], the protein stability index stood at 2.83.

Turning to TVHEVDIFRCFCPVYLHSQMLWEL [F15Y], the protein stability index stood at 3.31.

As for TVHEVDIFRCFCPVCLHSQMLWEL [F15C], the protein stability index came out at 1.76.

Variants of B2 are the subject of the next series. Described as above. Conditions: c terminus: a fixed tail appended.
For FPNRMDQQCQYRWLRVLNPDLVKG [T5M], the protein stability index came to 2.33.

Consider FPNRRDQQCQYRWLRVLNPDLVKG [T5R], for which the protein stability index came out at 1.73.

Consider FPNRTDQQCQFRWLRVLNPDLVKG [Y11F], for which the protein stability index was found to be 1.95.

Turning to FPNRTDQQCQLRWLRVLNPDLVKG [Y11L], the protein stability index is 2.1.

Consider FPNRTDQQCQSRWLRVLNPDLVKG [Y11S], for which the protein stability index came to 2.11.

Regarding FPNRTDQQCQNRWLRVLNPDLVKG [Y11N], the protein stability index came to 2.39.

Regarding FPNRTDQQCQARWLRVLNPDLVKG [Y11A], the protein stability index came to 2.16.

On to FPGRTDQQCQYRWLRVLNPDLVKG [N3G], for which the protein stability index turned out to be 1.77.

On to FPNRTDQQCQYRWLRVLNPDWVKG [L21W], for which the protein stability index came to 1.91.

Take FPNRTDQQCQYRWLRVLNPDQVKG [L21Q]: the protein stability index worked out at 2.08.

With FPNRTDQQCQYRWLRVLNPDRVKG [L21R], the protein stability index is 2.31.

FPNRTDQQCQYRWLRVLIPDLVKG [N18I]: the protein stability index worked out at 1.09.

As for FPNRTDQQCQYRWLRVLNPDLVQG [K23Q], the protein stability index came to 2.1.

For FPNRTDQQCQYRWLRVLNPDLVCG [K23C], the protein stability index was found to be 3.33.

FPNRTDQQCQYRWLRVLNPQLVKG [D20Q]: the protein stability index was 1.78.

For FPNRTDQQCQYMWLRVLNPDLVKG [R12M], the protein stability index worked out at 1.96.

In the case of FPNRTDQQCNYRWLRVLNPDLVKG [Q10N], the protein stability index was 1.76.

Take FPNRTDQQCQYRWLRVINPDLVKG [L17I]: the protein stability index is 2.01.

FPNRTDQQGQYRWLRVLNPDLVKG [C9G]: the protein stability index worked out at 1.97.

Consider FPNRTDQMCQYRWLRVLNPDLVKG [Q8M], for which the protein stability index was found to be 1.83.
